This is an account of results in PMC2500128 (The Journal of Cell Biology, 2008).

Data set [1] deals with microtubules (Cy5-labeled tubulin from porcine brain) (porcine (purified from porcine brain)) (UniProt P02550). The data set can be described thus: single-molecule fluorescence motility assay.
Data set [2] has the same target. The data set can be described thus: single-molecule fluorescence motility assay. The source holds these as a separate data set.
Data set [3] concerns the molecule itself. The data set can be described thus: single-molecule fluorescence and photobleaching.

Read-outs that look alike come from different tables or passages of the source.

In the case of “Eg5-513-GFP (from UniProt P28025 1-513) (domain or fragment)”, the time bound to the microtubule in data set [1] was less than 2 s. As to “full-length Xenopus laevis Eg5-GFP (from UniProt P28025 1-1067) (natural protein)”, the average duration of motile events (binding events) in data set [1] was 34 s; in data set [2], 16 s.

B1: Eg5-513-GFP (domain or fragment, X. laevis)
chain: MSSQNSFMASKKEDKGKNIQVVVRCRPFNQLERKASSHSVLECDSQRKEVYVRTGEVNDKLGKKTYTFDMVFGPAAKQIEVYRSVVCPILDEVIMGYNCTIFAYGQTGTGKTFTMEGERSSDEEFTWEQDPLAGIIPRTLHQIFEKLSENGTEFSVKVSLLEIYNEELFDLLSPSPDVGERLQMFDDPRNKRGVIIKGLEEISVHNKDEVYHILERGAARRKTASTLMNAYSSRSHSVFSVTIHMKETTVDGEELVKIGKLNLVDLAGSENIGRSGAVDKRAREAGNINQSLLTLGRVITALVERTPHIPYRESKLTRILQDSLGGRTKTSIIATVSPASINLEETVSTLDYANRAKSIMNKPEVNQKLTKKALIKEYTEEIERLKRELAAAREKNGVYLSSENYEQLQGKVLSQEEMITEYTEKITAMEEELKSISELFADNKKELEECTTILQCKEKELEETQNHLQESKEQLAQESFVVSAFETTEKKLHGTANKLLSTVRETTRDVSGLGSSGGGGSGGGGSGGGGS
As usually defined, the stoichiometry N is a count of units in the complex or per binding partner. Regarding B1, the “stoichiometry N” value in data set [3] came out at 2.
